From patent publication US20200330553A1 (BRIGHAM AND WOMEN S HOSPITAL, published 2020)

Assays:
[1] = molecular target: the molecule itself; assay: non-reducing western blot; BS3 cross-linking, HEK293 cells
Excerpt: In reducing western blotting, protein expressions of FLAG-sortilin Full, ECD+TMD and ICD+TMD were detected as bands of plausible molecular size (FIG. 2B). In non-reducing western blotting where disulfide bonds can be retained, FLAG-sortilin Full and ECD+TMD expressed a couple of bands (FIG. 2C). A band of 75-100 kDa was detected as monomers (FIG. 2C). Bands of approximately 200 kDa and higher molecular weight were detected as homodimers and multimers with intermolecular disulfide bonds (FIG. 2C). Next, FLAG-sortilin Full and ECD+TMD were cross-linked using water-soluble, non-cleavable cross-linker, BS3, in HEK293 cells. Both bands of homodimers and multimers appeared via the cross-linking (FIG. 2D). […] Dimerization of FLAG-sortilin ICD+TMD was not clearly detected in the non-reducing western blotting using whole cell lysate (FIG. 2C) potentially due to low protein expression levels of FLAG-sortilin ICD+TMD (FIGS. 2B, 2C). […] Therefore, it was determined whether FLAG-sortilin ICD+TMD can undergo degradation in proteasome and lysosome by adding proteasome inhibitor, MG-132, and lysosome inhibitor, chloroquine, to FLAG-sortilin ICD+TMD HEK293 cells, respectively. […] In non-reducing western blotting, bands with molecular size approximately twice as high as monomers of FLAG-sortilin ICD+TMD were detected (FIG. 2G). […]

[2] = molecular target: the molecule itself; assay: non-reducing western blot, HEK293 cells

Protein	binding result [1]	binding result [2]
FLAG-sortilin full-length (Full) (receptor, signal peptide 1-33 is implied by that; Expressed in HEK293 cells; also called FLAG-sortilin WT; FLAG-sortilin wild-type) SAPDYKDDDDKGEDEECGRVRDFVAKLANNTHQHVFDDLRGSVSLSWVGDSTGVILVLTTFHVPLVIMTFGQSKLYRSEDYGKNFKDITDLINNTFIRTEFGMAIGPENSGKVVLTAEVSGGSRGGRIFRSSDFAKNFVQTDLPFHPLTQMMYSPQNSDYLLALSTENGLWVSKNFGGKWEEIHKAVCLAKWGSDNTIFFTTYANGSCKADLGALELWRTSDLGKSFKTIGVKIYSFGLGGRFLFASVMADKDTTRRIHVSTDQGDTWSMAQLPSVGQEQFYSILAANDDMVFMHVDEPGDTGFGTIFTSDDRGIVYSKSLDRHLYTTTGGETDFTNVTSLRGVYITSVLSEDNSIQTMITFDQGGRWTHLRKPENSECDATAKNKNECSLHIHASYSISQKLNVPMAPLSEPNAVGIVIAHGSVGDAISVMVPDVYISDDGGYSWTKMLEGPHYYTILDSGGIIVAIEHSSRPINVIKFSTDEGQCWQTYTFTRDPIYFTGLASEPGARSMNISIWGFTESFLTSQWVSYTIDFKDILERNCEEKDYTIWLAHSTDPEDYEDGCILGYKEQFLRLRKSSMCQNGRDYVVTKQPSICLCSLEDFLCDFGYYRPENDSKCVEQPELKGHDLEFCLYGREEHLTTNGYRKIPGDKCQGGVNPVREVKDLKKKCTSNFLSPEKQNSKSNSVPIILAIVGLMLVTVVAGVLIVKKYVCGGRFLVHRYSVLQQHAEANGVDGVDALDTASHTNKSGYHDDSDEDLLE	binds	–
FLAG-sortilin S316E (receptor) SAPDYKDDDDKGEDEECGRVRDFVAKLANNTHQHVFDDLRGSVSLSWVGDSTGVILVLTTFHVPLVIMTFGQSKLYRSEDYGKNFKDITDLINNTFIRTEFGMAIGPENSGKVVLTAEVSGGSRGGRIFRSSDFAKNFVQTDLPFHPLTQMMYSPQNSDYLLALSTENGLWVSKNFGGKWEEIHKAVCLAKWGSDNTIFFTTYANGSCKADLGALELWRTSDLGKSFKTIGVKIYSFGLGGRFLFAEVMADKDTTRRIHVSTDQGDTWSMAQLPSVGQEQFYSILAANDDMVFMHVDEPGDTGFGTIFTSDDRGIVYSKSLDRHLYTTTGGETDFTNVTSLRGVYITSVLSEDNSIQTMITFDQGGRWTHLRKPENSECDATAKNKNECSLHIHASYSISQKLNVPMAPLSEPNAVGIVIAHGSVGDAISVMVPDVYISDDGGYSWTKMLEGPHYYTILDSGGIIVAIEHSSRPINVIKFSTDEGQCWQTYTFTRDPIYFTGLASEPGARSMNISIWGFTESFLTSQWVSYTIDFKDILERNCEEKDYTIWLAHSTDPEDYEDGCILGYKEQFLRLRKSSMCQNGRDYVVTKQPSICLCSLEDFLCDFGYYRPENDSKCVEQPELKGHDLEFCLYGREEHLTTNGYRKIPGDKCQGGVNPVREVKDLKKKCTSNFLSPEKQNSKSNSVPIILAIVGLMLVTVVAGVLIVKKYVCGGRFLVHRYSVLQQHAEANGVDGVDALDTASHTNKSGYHDDSDEDLLE	–	binds
FLAG-sortilin ECD+TMD (receptor, written as the form after propeptide cleavage; also called FLAG-sortilin ECD plus transmembrane domain) SAPDYKDDDDKGEDEECGRVRDFVAKLANNTHQHVFDDLRGSVSLSWVGDSTGVILVLTTFHVPLVIMTFGQSKLYRSEDYGKNFKDITDLINNTFIRTEFGMAIGPENSGKVVLTAEVSGGSRGGRIFRSSDFAKNFVQTDLPFHPLTQMMYSPQNSDYLLALSTENGLWVSKNFGGKWEEIHKAVCLAKWGSDNTIFFTTYANGSCKADLGALELWRTSDLGKSFKTIGVKIYSFGLGGRFLFASVMADKDTTRRIHVSTDQGDTWSMAQLPSVGQEQFYSILAANDDMVFMHVDEPGDTGFGTIFTSDDRGIVYSKSLDRHLYTTTGGETDFTNVTSLRGVYITSVLSEDNSIQTMITFDQGGRWTHLRKPENSECDATAKNKNECSLHIHASYSISQKLNVPMAPLSEPNAVGIVIAHGSVGDAISVMVPDVYISDDGGYSWTKMLEGPHYYTILDSGGIIVAIEHSSRPINVIKFSTDEGQCWQTYTFTRDPIYFTGLASEPGARSMNISIWGFTESFLTSQWVSYTIDFKDILERNCEEKDYTIWLAHSTDPEDYEDGCILGYKEQFLRLRKSSMCQNGRDYVVTKQPSICLCSLEDFLCDFGYYRPENDSKCVEQPELKGHDLEFCLYGREEHLTTNGYRKIPGDKCQGGVNPVREVKDLKKKCTSNFLSPEKQNSKSNSVPIILAIVGLMLVTVVAGVLIV	binds	–
6×His-sortilin ICD+TMD C783A (receptor) SAPHHHHHHNSVPIILAIVGLMLVTVVAGVLIVKKYVAGGRFLVHRYSVLQQHAEANGVDGVDALDTASHTNKSGYHDDSDEDLLE	–	no binding
